# Experimental data as given in US20250332297A1, “DLL3-SPECIFIC BINDING CONSTRUCTS AND THEIR USE IN RADIOTHERAPY” (MOLECULAR PARTNERS AG, priority 2024, published 2025).
# Substitutions are numbered along the chain they refer to.
# T1: human DLL3 (Homo sapiens, UniProt Q9NYJ7)
# T1 construct: (Q9NYJ7, Gene ID: 10683, residues 27 to 466; purchased from Evitria); 3C protease recognition site (C); Fc knob into hole (C); purchased Evitria
# T1 sequence (Q9NYJ7 27-466): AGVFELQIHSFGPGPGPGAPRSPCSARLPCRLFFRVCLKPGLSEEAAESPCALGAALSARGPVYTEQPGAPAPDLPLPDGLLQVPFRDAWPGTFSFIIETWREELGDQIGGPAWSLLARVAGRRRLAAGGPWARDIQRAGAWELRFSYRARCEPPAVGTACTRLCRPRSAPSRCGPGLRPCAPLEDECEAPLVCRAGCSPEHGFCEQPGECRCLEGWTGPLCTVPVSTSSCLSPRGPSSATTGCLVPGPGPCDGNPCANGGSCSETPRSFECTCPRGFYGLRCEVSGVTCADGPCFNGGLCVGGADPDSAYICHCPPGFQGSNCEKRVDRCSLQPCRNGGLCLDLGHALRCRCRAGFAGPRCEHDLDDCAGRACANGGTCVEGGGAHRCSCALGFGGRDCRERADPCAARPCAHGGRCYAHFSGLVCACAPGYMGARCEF
# T2: NCI-H82 cells expressing human DLL3 (Homo sapiens, UniProt Q9NYJ7)
# T2 construct: a human lung carcinoma cell line which endogenously expresses DLL3 on the surface; host or cells: NCI-H82
# T2 sequence (Q9NYJ7 27-618): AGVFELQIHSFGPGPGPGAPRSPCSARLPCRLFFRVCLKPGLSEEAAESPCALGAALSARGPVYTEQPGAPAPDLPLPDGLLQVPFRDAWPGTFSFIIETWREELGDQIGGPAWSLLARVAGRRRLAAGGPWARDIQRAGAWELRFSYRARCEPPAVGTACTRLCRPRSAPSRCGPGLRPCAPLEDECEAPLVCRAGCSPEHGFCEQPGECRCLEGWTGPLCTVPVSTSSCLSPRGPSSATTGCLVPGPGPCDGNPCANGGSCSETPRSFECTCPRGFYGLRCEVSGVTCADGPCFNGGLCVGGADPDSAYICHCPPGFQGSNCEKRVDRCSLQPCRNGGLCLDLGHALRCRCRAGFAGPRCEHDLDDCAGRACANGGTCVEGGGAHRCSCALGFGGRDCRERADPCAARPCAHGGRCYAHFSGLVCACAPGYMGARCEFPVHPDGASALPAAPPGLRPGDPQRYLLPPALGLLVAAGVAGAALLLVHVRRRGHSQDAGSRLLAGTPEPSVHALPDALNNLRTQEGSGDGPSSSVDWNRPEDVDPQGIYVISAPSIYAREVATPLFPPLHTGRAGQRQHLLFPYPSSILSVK
# B1: MAM160: Two domain (2D) ankyrin repeat protein: serum albumin-specific domain (SEQ ID NO: 7), PT linker, DLL3-specific domain MAM120 (protein)
# chain: DLGKKLLEAARAGQDDEVRELLKAGADVNAKDYFSHTPLHLAARNGHLKIVEVLLKAGADVNAKDFAGKTPLHLAADAGHLEIVEVLLKAGADVNAQDIFGKTPADIAADAGHEDIAEVLQKAAGSPTPTPTTPTPTPTTPTPTPTGSDLGTKLLSAAADGQDDEVRELLQAGADVNAKDLFGYTPLHLAAWRGHLEIVEVLLEAGADVNAKDAAGLTPLHLAAWFGHLEIVEVLLEAGADVNAQDVQGVTPADLAAKEGHEDIAEVLQQAA
# modifications: Ankyrin repeat protein (MAM160)
# B2: MAM282: Two domain (2D) ankyrin repeat protein: serum albumin-specific domain (SEQ ID NO: 7), PT linker, DLL3-specific domain (SEQ ID NO: 2) (protein)
# chain: DLGKKLLEAARAGQDDEVRELLKAGADVNAKDYFSHTPLHLAARNGHLKIVEVLLKAGADVNAKDFAGKTPLHLAADAGHLEIVEVLLKAGADVNAQDIFGKTPADIAADAGHEDIAEVLQKAAGSPTPTPTTPTPTPTTPTPTPTGSDLGKKLLAAAREGQDDEVRELLKAGADVNAKDIWGQTPLHIAAWFGHLEIVEVLLKAGADVNAKDQTGHTPLHLAAKFGHLEIVEVLLKAGADVNAQDLLGRTPADLAAEEGHEDIAEVLQKAA
# modifications: Ankyrin repeat protein (MAM282)
# B3: MAM279: Two domain (2D) ankyrin repeat protein: serum albumin-specific domain (SEQ ID NO: 7), PT linker, DLL3-specific domain of MAM093 (protein)
# chain: DLGKKLLEAARAGQDDEVRELLKAGADVNAKDYFSHTPLHLAARNGHLKIVEVLLKAGADVNAKDFAGKTPLHLAADAGHLEIVEVLLKAGADVNAQDIFGKTPADIAADAGHEDIAEVLQKAAGSPTPTPTTPTPTPTTPTPTPTGSDLGKKLLAAAAQGQDDEVRELLKAGANVNAKDLFGYTPLHLAAWRGHLEIVEVLLKAGADVNAKDAAGETPLHLAAWFGHLEIVEVLLKAGADVNAQDLQGKTPADLAAKEGHEDIAEVLQKAA
# modifications: Ankyrin repeat protein (MAM279)
# B4: MAM283: Two domain (2D) ankyrin repeat protein: serum albumin-specific domain (SEQ ID NO: 7), PT linker, DLL3-specific domain (SEQ ID NO: 3) (protein)
# chain: B1 chain with T152K, S156A, L217E, V250K
# modifications: Ankyrin repeat protein (MAM283)
# Target: T1, human DLL3
# Test: SPR multi-trace analysis, binding to human DLL3 (Example 1)
# Conditions: immobilized bio-DLL3 (hDLL3 ECD), PBS pH 7.4, 1:1 Langmuir, Table 1
# Procedure: Kinetic binding parameters and binding affinities of two domain (2D) ankyrin repeat proteins comprising an ankyrin repeat domain with binding specificity for DLL3 and an ankyrin repeat domain with binding specificity for serum albumin were determined by surface plasmon resonance (SPR) multi-trace analysis.
# In brief, a SPR assay was used to determine the binding kinetics to the target human DLL3. The data were generated using BioRad ProteOn instrument in SPR running buffer (PBS, pH 7.4 containing 0.005% Tween 20®). […] The chip was coated with biotinylated target (bio-DLL3) to reach a signal intensity of 1780 RU. All analytes (3-fold dilution ranging from 300-33.3 nM) were injected in succession for 240 s (100 μl/min) and dissociation was recorded for 10800 s (100 μl/min). Each injection was followed by a regeneration step with 16 mM H3PO4 for 18 s. […] The bio-DLL3 target used was as described in U.S. 63/550,951, i.e. the extracellular domain (ECD) of human DLL3 protein (Q9NYJ7, Gene ID: 10683, residues 27 to 466; purchased from Evitria) linked via an Avi-tag (for site-directed biotinylation), followed by a 3C protease recognition site, to a Fc knob into hole (hDLL3 ECD-Avi-Fckih).
Kd [nM],koff [s⁻¹],kon [M⁻¹ s⁻¹],Molecule
1.99,2.01e-05,10100,B1
3.03,3.79e-05,12500,B2
0.616,1.44e-05,23300,B3
0.953,1.79e-05,18800,B4

# Target: T3, mouse serum albumin (Mus musculus, UniProt P07724)
# T3 construct: purchased Sigma-Aldrich
# Test: SPR binding to mouse serum albumin (Example 1)
# Conditions: immobilized MSA, 1:1 Langmuir, Table 2
# Procedure: (§1) Similarly, a SPR assay was used to determine the binding kinetics to human or mouse serum albumin. […] All analytes (3-fold dilution ranging from 1000-12.35 nM) were injected in succession for 240 s (25 μl/min) and dissociation was recorded for 600 s (25 μl/min). […] The obtained SPR traces were used to determine the ankyrin repeat protein-serum albumin interaction parameters, summarized in Table 2.
# T3 sequence (P07724 25-608): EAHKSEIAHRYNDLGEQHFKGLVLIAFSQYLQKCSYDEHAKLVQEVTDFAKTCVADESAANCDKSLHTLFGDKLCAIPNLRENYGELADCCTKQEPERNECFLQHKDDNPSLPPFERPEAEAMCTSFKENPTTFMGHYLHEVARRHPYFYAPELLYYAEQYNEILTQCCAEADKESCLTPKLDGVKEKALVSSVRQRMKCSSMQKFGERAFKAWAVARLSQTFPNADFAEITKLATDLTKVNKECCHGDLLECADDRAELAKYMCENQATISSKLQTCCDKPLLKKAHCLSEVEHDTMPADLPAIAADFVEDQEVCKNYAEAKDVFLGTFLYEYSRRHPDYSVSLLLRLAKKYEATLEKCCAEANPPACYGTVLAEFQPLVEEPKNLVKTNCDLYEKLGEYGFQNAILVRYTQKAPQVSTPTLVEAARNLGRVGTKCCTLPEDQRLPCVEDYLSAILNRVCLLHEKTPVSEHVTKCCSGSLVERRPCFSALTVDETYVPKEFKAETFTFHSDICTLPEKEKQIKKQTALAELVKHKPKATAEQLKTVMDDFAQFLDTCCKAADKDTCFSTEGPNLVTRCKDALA
Molecule,Kd [nM],Koff MSA [s⁻¹],Kon MSA [M⁻¹ s⁻¹]
B1,336,0.0271,80430
B2,335,0.0354,105900
B3,367,0.0335,91240
B4,507,0.0378,74680

# Target: T2, NCI-H82 cells expressing human DLL3
# Test: Cell binding titration on NCI-H82 cells
# Assay type: cell-based
# Conditions: absence of human serum albumin, read-out: Cell binding EC50, w/o HSA
# Procedure: Furthermore, cell binding titration assays were also performed with selected two domain (2D) designed ankyrin repeat proteins to determine binding to human cells expressing DLL3 endogenously, in absence and presence of human serum albumin. For this purpose, NCI-H82 cells were used, a human lung carcinoma cell line which endogenously expresses DLL3 on the surface. […] A non-binding DARPin comprising SEQ ID NO: 22 was used as a negative control.
# In brief, 1×10^5 cells/well were resuspended in 100 μl DARPin dilution (500 nM, 1:5 serial diluted in PBS, 2% FBS) and incubated for 1 h at 4° C. This step was performed in absence and presence of 10 μM Human Serum Albumine (CSL Behring #150570). Cells were washed twice with PBS, 2% FBS and resuspended in 100 μl anti-DARPin antibody (rabbit anti-DARPin 1.4.8) and LIVE/DEAD cell stain (1:1000, Biolegend #423106). After incubation and washing, cells were incubated with detection antibody for 30 minutes (Goat […] IgG (H+L), AF647, Thermo Fisher #21445). Cells were fixed (Paraformaldehyde Solution, TCL119, LucernaChem) and acquired at Attune N×T (Thermo Life Technologies). Raw fcs files were exported and analyzed using FlowJo software. MFI values of live AF647-positive cells were exported from FlowJo and plotted using GraphPad Prism software.
row,EC50 [nM],Molecule
1,2.6,B2
2,2.5,B3
3,5.4,B4

# Same assay, conditions: presence of 10 μM human serum albumin, read-out: Cell binding EC50, with HSA
row,EC50 [nM],Molecule
1,2.6,B2
2,2.1,B3
3,8.1,B4

# Target: human serum albumin (Homo sapiens, UniProt P02768)
# Test: SPR binding to human serum albumin (Example 1)
# Design: purchased CSL
# Conditions: immobilized HSA, 1:1 Langmuir, Table 2
# Procedure: as §1
Molecule,Kd [nM],Koff HSA [s⁻¹],Kon HSA [M⁻¹ s⁻¹]
B1,95.9,0.0105,110000
B2,74.3,0.00889,120000
B3,75,0.00923,123000
B4,103,0.00924,89500
